A word on the Km: it is the concentration of substrate that gives half-maximal velocity.

Substrate in the series: O=P(O)(O)O[C@H]1O[C@H](CO)[C@@H](O)[C@H](O)[C@@H]1O
Nature of the series: purified protein. It is filed as biochemical, Streptomyces coelicolor. As to conditions: GTP as co-substrate; cooperative (Hill fit).

B1: SCO4238 (Streptomyces coelicolor A3(2)) (protein)
chain: MTDPNAASRRPVQAVVLAGGQGSRLRPYTDDRPKPMVEIPGTGTPIIGHQLAWLAEEGVTDVVVSCGHLAEVLQKWLESADLPLSVTTVVETEPLGRGGGLRYAAAHLPHPDRSWYATNGDIWTRFSLRDMADFHAERDAVATLALARPRLPWGAVQTDGFGHITDFIEAPPSTFEINAGVYVFSPEFAAMLPERGDHERTTFPRLAREHRLAGFPIPQGSYWRAIDTAKDLTEAARELAALSGR
As for B1, the Km is 180 ± 30 µM.
